The values below come from the nanobody polyreactivity screen of Harvey et al. (2022).

A short description of the series: yeast display, Sf9 membrane polyspecificity reagent, FACS + sequencing; frameworks hold sequencing errors. The method in brief:
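Polyreactivity labels are assigned by the sorting gate from which each nanobody was recovered. The gates were low and high (top ~1%), set on anti-HA fluorescence for expression and streptavidin fluorescence for reagent binding. Before sorting, galactose-induced (36–48 hours) yeast display cells were stained for 1 hour at 4 °C with 10% biotinylated, detergent-solubilized Sf9 membrane reagent.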
On to “QVQLVESGGGLVQAGGSLRLSCAASGRTFKYYAMGWYRQAPGKERELVAAISYNGGSTFYADSVKGRFTISRDNAKNTVYLQMNSLKPEDTAVYYCAAGSRYASELDYWGQGTQVTVSS”, for which the “polyreactivity (PSR sort gate)” value is “high polyreactivity”.

Consider “QVQLVESGGGLVQAGGSLRLSCAASGRTFKYYAMGWYRQAPGKERELVAAITYRDRTYYADSVKGRFTISRDNAKNTVYLQMNSLKPEDTAVYYCAAQHYGSDGRGFDYWGQGTQVTVSS”, for which the “polyreactivity (PSR sort gate)” value was “low polyreactivity”.

For the sequence “QVQLVESGGGLVQAGGSLRLSCAASGRTFKYYAMGWYRQAPGKERELVAGITSGSSTSYADSVKGRFTISRDNAKITVYLQMNSLKPEDTAVYFCAAGIYQYRYDYWGQGTQVTVSS”, the “polyreactivity (PSR sort gate)” value is reported as “high polyreactivity”.

As for “QVQLVESGGGLVQAGGSLRLSCAASGRTFKYYAMGWYRQAPGKERELVAGITYRDGRTYYADSVKGRFTISRDNAKNTVYLQMNSLKPEDTEVYYCAAERYSSPYWGMDYWGQGTQVTVSS”, the “polyreactivity (PSR sort gate)” value was “high polyreactivity”.

As for “QVQLVESGGGLVQAGGSLRLSCAASGRTFKYYAMGWYRQAPGKERELVASISASGGSTRYADSVKGRFTISRDNAKNTVYLQMNSLKPEDTAVYYCAADRGYKYYYWGLGTQVTVSS”, the “polyreactivity (PSR sort gate)” value was “high polyreactivity”.

As for “QVQLVESGGGLVQAGGSLRLSCAASGRTFKYYTMGWYRQAPGKEREFVAAITSSGGRTYYADSVKGRFTISRDNAKNTVDLQMNSLKPEDTAVYYCAASTYRVWLAPATLSRYDYWGQGTQVTVSS”, the “polyreactivity (PSR sort gate)” value is listed as “high polyreactivity”.

For the sequence “QVQLVESGGGLVQAGGSLRLSCAASGRTFLAYAMGWYRQAPGKERELVAAISSSGSTTYYADSVKGRFTISRDNAKNTVYLQMNSLKPEDTAVYYCAASNGYRSSYYRYDYWGQGTQVTVSS”, the “polyreactivity (PSR sort gate)” value is recorded as “low polyreactivity”.

Consider “QVQLVESGGGLVQAGGSLRLSCAASGRTFLEYAMGWYRQAPGKERELVASITWSGDTTYYADSVKGRFTISRDNAKNTVYLQMNSLKPEDTAVYYCAAGYYYPNTYYSYDWYDYWGQGTQVTVSS”, for which the “polyreactivity (PSR sort gate)” value is recorded as “low polyreactivity”.

In the case of “QVQLVESGGGLVQAGGSLRLSCAASGRTFLGYTMGWYRQAPGKESEFVAAITFSGDSTYYADSVKGRFTISRDNAKNTVYLQMNSLKPEDTAVYYCAARIKYYTYLFYYWGQGTQVTVSS”, the “polyreactivity (PSR sort gate)” value was “high polyreactivity”.

For “QVQLVESGGGLVQAGGSLRLSCAASGRTFLHNAKGWYRQAHGKERELVAAIDSGGTTHYADSVKGRFTISRDNAKNTVYLQMKSLKPEDTAVYYCAARPTRGNWWYGYWGQGTQVTVSS”, the “polyreactivity (PSR sort gate)” value is given as “low polyreactivity”.

For “QVQLVESGGGLVQAGGSLRLSCAASGRTFLINAMGWYRQAPGKEWELVAAITQSGGSTYYADSVKGRFTISRDKAKNTVYLQLNSLKPEDTAVYYCAADVPGVYPYDYWGQGTQVTVSS”, the “polyreactivity (PSR sort gate)” value is “low polyreactivity”.

On to “QVQLVESGGGLVQAGGSLRLSCAASGRTFLIYAMGWYRQAPGKERELVAAITSGGRTKYADSVKGRFTISRDNAKNTVYLQMNSLKPEDTAVYYCAARTGVYRYSRKFYYWGQGTQVTVSS”, for which the “polyreactivity (PSR sort gate)” value is recorded as “high polyreactivity”.

Take “QVQLVESGGGLVQAGGSLRLSCAASGRTFLKNAMGWYRQAPGKERELVAAITSGGSTNYADSVKGRFTISRDNAKNTVYLQMNSLKPEDTAVYYCNAPSYWYYPVLGSFLTFDYWGQGTQVTVSS”: the “polyreactivity (PSR sort gate)” value is on record as “low polyreactivity”.

Consider “QVQLVESGGGLVQAGGSLRLSCAASGRTFLLYAMGWYRQAPGKERELVAAITSGGGRTYYADSVKGRFTISRDNAKNTVYLQMNSLKPEDTAVYYCAATRPATYAAYDYWGQGTQVTVSS”, for which the “polyreactivity (PSR sort gate)” value is given as “high polyreactivity”.

As for “QVQLVESGGGLVQAGGSLRLSCAASGRTFLQYAMGWYRQAPGKERELVAANTTSGGDTYYADSVKGRFTISRDNAKNTVYLQMNSMKPDDTAVYYCNAAFRVYIPHVPYFVDFDYWGQGTQVTLSS”, the “polyreactivity (PSR sort gate)” value is reported as “low polyreactivity”.

Turning to “QVQLVESGGGLVQAGGSLRLSCAASGRTFLVYAMGWYRQAPGKERELVAAIRYSGSSTYADSVKGRFTISRDNAKNTVYLQMNSLKPEDTAVYDCNARRASYRSIYDYWGHGTQVTVSS”, the “polyreactivity (PSR sort gate)” value is reported as “high polyreactivity”.

Regarding “QVQLVESGGGLVQAGGSLRLSCAASGRTFLVYAMGWYRQAPGKERELVAAITYSDGSTYYADSVKGRFTISRDNAKNTVYLQMNSLKPEDTAVYFCAADSSTFPSDYYWGKGTQVTVSS”, the “polyreactivity (PSR sort gate)” value is given as “low polyreactivity”.

As for “QVQLVESGGGLVQAGGSLRLSCAASGRTFLWNAMGWSRPAPGKERELVAAITSGGRTTYADSVKGRFTISRDNAKNTVYLQMNSLKPEDTAVYYCAAVSANQDFDYWGQGTQVTVSS”, the “polyreactivity (PSR sort gate)” value is recorded as “high polyreactivity”.

In the case of “QVQLVESGGGLVQAGGSLRLSCAASGRTFLWNAMGWYRQAPGKERELVAAIRGGTITYYADSVKGRFTISRDNAKNTVYLQMNSLKPEDTAVYYCAATSARGQYYWYCFNGYPYSEFGYWGQGTQVTVSS”, the “polyreactivity (PSR sort gate)” value was “low polyreactivity”.

As for “QVQLVESGGGLVQAGGSLRLSCAASGRTFLWNAMGWYRQAPGKERELVAAISISGGNTNYADSVKGRFTISRDNAKNTVYLQMNSLKPEDTAVYYCNADPRAEPGDWSYEMDYWGQGTQVTVSS”, the “polyreactivity (PSR sort gate)” value was “low polyreactivity”.

As for “QVQLVESGGGLVQAGGSLRLSCAASGRTFLWYAKGWYRQAPGKEMELVATITSGDSTIYADSVKGRFTISRDNEKNTVYLQMNSLKPVDTAVYYCAAGYYYYLRDHDYWGQGTQVTVSS”, the “polyreactivity (PSR sort gate)” value is on record as “low polyreactivity”.

Regarding “QVQLVESGGGLVQAGGSLRLSCAASGRTFLYNAMGWYRQAPGKERELVAAIRWSGGTTYYADSVKGRFTISRDNAKNTVYLQMNSLKPEDTAVYYCAARWGPYYGGVRYGYWGQGTQVTVSS”, the “polyreactivity (PSR sort gate)” value is “high polyreactivity”.

On to “QVQLVESGGGLVQAGGSLRLSCAASGRTFLYVMGWYRQAPGKERELVAAISRGGSTSYADSVKGRFTISRDNAKNTVYLQMNSLKPEDTAVYYCAATNYWRDGYWGQGTQVTVSS”, for which the “polyreactivity (PSR sort gate)” value is given as “high polyreactivity”.

Take “QVQLVESGGGLVQAGGSLRLSCAASGRTFMRYAMGWYRQAPGKERELVAAISRGGGRTYYADSVKGRFTISRDNAKNTVYLQMNSLKPEDTAVYYCAADLSPEYDYWGQGTQVTVSS”: the “polyreactivity (PSR sort gate)” value is “high polyreactivity”.

On to “QVQLVESGGGLVQAGGSLRLSCAASGRTFNAYAMGWYRQAPGKERELVAAITWSGGSTYYAHSVKGRFTISRDNAKNTVYLQMNSLKPEDTAVYYCAARSFTNIRSVSSPYRYYYWGQGTQVTVSS”, for which the “polyreactivity (PSR sort gate)” value was “high polyreactivity”.

“QVQLVESGGGLVQAGGSLRLSCAASGRTFNCYAMGWYRQAPGKERELVAAISNGGNTNYADSVKGRFTISRDNAKNTVYLQMNSLKPEDTAVYYCAARATPAFSRRGYYWGQGTQVTVSS”: the “polyreactivity (PSR sort gate)” value is given as “high polyreactivity”.

Regarding “QVQLVESGGGLVQAGGSLRLSCAASGRTFNDYAMGWYRQATGKERELVAGITWRGGSTYYADSVKGRFTISRDNAKNTVYLQMNSLKPEDTAVYYCNAVPRRGYSRRDYWGQGTQVTVSS”, the “polyreactivity (PSR sort gate)” value is on record as “high polyreactivity”.

On to “QVQLVESGGGLVQAGGSLRLSCAASGRTFNIYAMGWYRQEPGKERELVAAITNNGGRTYYADSVKGRFTISRDNAKNTVYLQMNSLKPEDTAVYYCAAASPWRYGFEYWGQGTQVTVSS”, for which the “polyreactivity (PSR sort gate)” value was “high polyreactivity”.

On to “QVQLVESGGGLVQAGGSLRLSCAASGRTFNKYAMGWYRQAPGKERELVAAISTRGGSTYYADSVKGRFTISRDNAKNNVYLQMNSLKPEDTAVYYCAARLTTVGQGFDYWGQGTKVTVSS”, for which the “polyreactivity (PSR sort gate)” value was “high polyreactivity”.

“QVQLVESGGGLVQAGGSLRLSCAASGRTFNPYVMGWYRQAPGKERELVARIRGSGTSTYYADSVKGRFTISRDNAKNTVYLQMNSLKPEDTAVYYCAAAQSKYSFYWGDYYYWGQGTQVTVSS”: the “polyreactivity (PSR sort gate)” value is on record as “high polyreactivity”.

Regarding “QVQLVESGGGLVQAGGSLRLSCAASGRTFNQYAMGWYRQAPGKVRELVAAISRPTGRTYYADSVKGRFTISRDNAKNTVYLQMNSLKPEDTAVYYCAKADNRSPVDNGFDYWGQVTQVTVSS”, the “polyreactivity (PSR sort gate)” value is listed as “high polyreactivity”.

Consider “QVQLVESGGGLVQAGGSLRLSCAASGRTFNRYAMGWYRQAPGKERELVAVITSDGRTNYADSVKGRFTISRDNAKNTVYLQMNSLKPEDSAVYYCNKRSALSFVYDFDYWGQGTQVTVSS”, for which the “polyreactivity (PSR sort gate)” value is “low polyreactivity”.

On to “QVQLVESGGGLVQAGGSLRLSCAASGRTFNSYAMGWYRQAPGKERELVAGITGTGGSTYYADSVKGRFTISRDNAKNTVYLQMNSLKPEDTAVYYCNALRRCQRYWDPYGYDYWGQGTQVTVSS”, for which the “polyreactivity (PSR sort gate)” value is listed as “high polyreactivity”.

“QVQLVESGGGLVQAGGSLRLSCAASGRTFNTYAMGWYRQAPGKEREFVAAIRYSGDRTNYADSVKGRFTISRDNAKNTVYLQMNSLKPEDTAVYYCAAVNYFPWWSFEYWGQGTQVTVSS”: the “polyreactivity (PSR sort gate)” value is “low polyreactivity”.

Take “QVQLVESGGGLVQAGGSLRLSCAASGRTFNTYAMGWYRQAPGKERELVAAISSGRRTYYADSVKGRFTISRDNAKNTVYLQMNSLKPEDTAVYYCAKRGRYSYKYDYWGQGTQVTVSS”: the “polyreactivity (PSR sort gate)” value was “high polyreactivity”.

As for “QVQLVESGGGLVQAGGSLRLSCAASGRTFNTYAMGWYRQAPGKERELVADISVSGGRTYYADSVKGRFTISRDNAKNTVYLQMNSLKPEDNAVYYCAKRIRYNWTFDYWGQGTQVTVSS”, the “polyreactivity (PSR sort gate)” value is recorded as “low polyreactivity”.

As for “QVQLVESGGGLVQAGGSLRLSCAASGRTFNVNAMGWYRQAPGKERELVASITWSDGSTYYADSVKGRFTISRDNAKNTVYLQMNSLKPEDTAVYYCNVTYGLESSYPRDDYWGQGTQVTVSS”, the “polyreactivity (PSR sort gate)” value is recorded as “low polyreactivity”.

Take “QVQLVESGGGLVQAGGSLRLSCAASGRTFNVNVMGWYRQAPGKERELVAAIRYNGGSTYADSVKGRFTISRDNAKNTVYLQMNSLKPEDTAVYYCNADTFFPFEHGMDYWGQGTQVTVSS”: the “polyreactivity (PSR sort gate)” value is “low polyreactivity”.

For “QVQLVESGGGLVQAGGSLRLSCAASGRTFNVYAMGWYRQAPGKERELVAAISIGGRTNYADSVKGRFTISRDNAKNTVYLQMNSLKPEDTAVYYCAADTRRKYGGMYYWGQGTQVTVSS”, the “polyreactivity (PSR sort gate)” value is recorded as “high polyreactivity”.

With “QVQLVESGGGLVQAGGSLRLSCAASGRTFNWYAMGWYRQAPGKEWELVAAISGGGGSTYYADSVKGRFTISRDNAKNTVYLQMNSLKPEDTAVYYCAADVEGWTVESDVYRVGYDYWGQGTQVTVSS”, the “polyreactivity (PSR sort gate)” value is reported as “low polyreactivity”.
